Assay results published in PMC2279300.

Assays:
[1] = target: biotinylated oligopeptide spanning one repeat unit of the TARP phosphodomain, first tyrosine phosphorylated (pY1) (Chlamydia trachomatis serovar L2)
[2] = target: biotinylated oligopeptide spanning one repeat unit of the TARP phosphodomain, second tyrosine phosphorylated (pY2) (Chlamydia trachomatis serovar L2)
Sequence of biotinylated oligopeptide spanning one repeat unit of the TARP phosphodomain, second tyrosine phosphorylated (pY2) (Chlamydia trachomatis serovar L2) (Q6GX35 174-222): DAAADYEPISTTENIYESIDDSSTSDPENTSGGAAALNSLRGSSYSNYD

Sequence of biotinylated oligopeptide spanning one repeat unit of the TARP phosphodomain, first tyrosine phosphorylated (pY1) (Chlamydia trachomatis serovar L2) (Q6GX35 174-222): as above

Substance: Sos1 (from UniProt Q07889 1-1333) (natural protein)
- guanine nucleotide exchange activity towards His-Rac1 of the pY1 oligopeptide precipitate from regular HeLa lysate (32P label retained on filters) [1]: 31000 CPM

Substance: Vav2 (from UniProt P52735 1-878) (natural protein)
- guanine nucleotide exchange activity towards His-Cdc42 of the pY1 oligopeptide precipitate from lysate supplemented with PI 3,4,5-P3 (32P label retained on filters) [1]: 28700 CPM
- guanine nucleotide exchange activity towards His-Rac1 of the pY1 oligopeptide precipitate from lysate supplemented with PI 3,4,5-P3 (32P label retained on filters) [1]: 51200 CPM
- guanine nucleotide exchange activity towards His-Cdc42 of the pY2 oligopeptide precipitate from lysate supplemented with PI 3,4,5-P3 (32P label retained on filters) [2]: 23000 CPM
- guanine nucleotide exchange activity towards His-Rac1 of the pY2 oligopeptide precipitate from lysate supplemented with PI 3,4,5-P3 (32P label retained on filters) [2]: 31700 CPM
